Results published in patent US20020168358A1, “Treatment of T-cell mediated diseases” (priority 2001, published 2002).

B1: MIP-1β: chemokine tested for comparison in T cell chemotaxis (protein, UniProt P13236 24-92, looked up)
C-C motif chemokine 4: APMGSDPPTACCFSYTARKLPRNFVVDYYETSSLCSQPAVVFQTKRSKQVCADPSESWVQEYVYDLELN
B2: SLC: secondary lymphoid organ chemokine, ligand of the CCR7 receptor (protein, UniProt O00585 24-134, looked up)
C-C motif chemokine 21: SDGGAQDCCLKYSQRKIPAKVVRSYRKQEPSLGCSIPAILFLPRKRSQAELCADPKELWVQQLMQHLDKTPSPQKPAQGCRKDRGASKTGKKGKGSKGCKRTERSQTPKGP
B3: MIP-3β: chemokine, macrophage inflammatory protein-3b, ligand of the CCR7 receptor (protein, UniProt Q99731 22-98, looked up)
C-C motif chemokine 19: GTNDAEDCCLSVTQKPIPGYIVRNFHYLLIKDGCRVPAVVFTTLRGRQLCAPPDQPWVERIIQRLQRTSAKMKRRSS
B4: RANTES: chemokine tested for comparison in T cell chemotaxis (protein, UniProt P13501 24-91, looked up)
C-C motif chemokine 5: SPYSSDTTPCCFAYIARPLPRAHIKEYFYTSGKCSNPAVVFVTRKNRQVCANPEKKWVREYINSLEMS
B5: Tarc: chemokine tested for comparison in T cell chemotaxis (protein, UniProt Q92583 24-94, looked up)
C-C motif chemokine 17: ARGTNVGRECCLEYFKGAIPLRKLKTWYQTSEDCSRDAIVFVTVQGRAICSDPNNKRVKNAVKYLQSLERS
B6: MIP-1α: chemokine tested for comparison in T cell chemotaxis (protein, UniProt P10147 24-92, looked up)
C-C motif chemokine 3: SLAADTPTACCFSYTSRQIPQNFIADYFETSSQCSKPGVIFLTKRSRQVCADPSEEWVQKYVSDLELSA

Columns and labels:
CCR7 = target: T1, CCR7 (Homo sapiens, UniProt P32248); experiment: Binding assay: 125I-MIP-3β binding to HUT-78 cell membranes (scintillation proximity); conditions: binding assay of Example 1, HUT-78 membranes, read-out: IC50, inhibition of binding of MIP-3β to CCR7
T1 construct: The cells were then disrupted with a Polytron homogenizer and centrifuged at 30,000× g for 10 min; endogenous in cells; host or cells: HUT-78 cells (membrane pellet)
T1 sequence (P32248 25-378): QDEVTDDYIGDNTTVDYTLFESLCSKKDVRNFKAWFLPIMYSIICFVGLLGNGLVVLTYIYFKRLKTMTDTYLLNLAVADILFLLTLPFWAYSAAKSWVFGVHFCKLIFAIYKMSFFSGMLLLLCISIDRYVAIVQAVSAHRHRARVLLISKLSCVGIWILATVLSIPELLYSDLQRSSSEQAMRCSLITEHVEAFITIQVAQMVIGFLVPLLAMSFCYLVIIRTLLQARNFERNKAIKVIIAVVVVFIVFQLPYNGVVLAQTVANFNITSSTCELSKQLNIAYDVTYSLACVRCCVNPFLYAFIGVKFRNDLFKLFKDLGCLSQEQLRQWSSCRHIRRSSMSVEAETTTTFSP
Description: HUT-78 cells were cultured in RPMI media with 10% FBS, pen-strep (100 u/ml), L-glutamine (2 mM), HEPES (10 mM) and non-essential amino acids (0.1 mM). The cells were collected by centrifugation at 170× g for 5 min and resuspended to 50×10^ 6 cells/ml in Dulbeccoco's Ca^2+ and Mg^2+ free media containing 8 mg/l aprotinin at 4° C. The cells were then disrupted with a Polytron homogenizer and centrifuged at 30,000× g for 10 min. The pellet was washed 6 times and stored at −80° C.
The binding assay was run in a buffer containing HEPES (50 mM), CaCl2 (1 mM), MgCl2 (5 mM), NaCl (150 mM) and BSA (0.5 mg/ml), pH 7.2. The pellet was resuspended to 8×10^6 cell equivalents/ml and 50 μl was added to microtiter plate wells containing 130 μl of buffer with various concentrations of compounds, and 0.5 mg PEI-treated wheatgerm agglutinin-coated scintillation proximity beads (Amersham). The binding was initiated by the addition of 20 μl of 600 pM ^125I-MIP-3β (New England Nuclear). The microtiter plate was mixed and then the beads were allowed to settle overnight before counting in a Microbeta plus liquid scintillation counter (Wallac).

[1] = tested on: PHA-activated human T cells; experiment: In vitro chemotaxis of T cells (48-well Boyden chamber); type: cell-based; conditions: for effect on T cell chemotaxis compared with other chemokines: Hut 78 and primary T cells; for chemoattractant activity for PHA-activated human T cells: FIG. 3
Description: Lymphocyte and PHA blast chemotaxis to appropriate chemokine was measured using a 48-well Boyden chamber (Neuro Probe Inc., Cabin John, Md.). Agonists were diluted in RPMI media (BioWhittaker, Walkersville, Md.) containing 0.1% bovine serum albumin (Invitrogen, Carlsbad, Calif.) and added to the bottom wells of the chemotaxis chamber. Peripheral mononuclear blood cells were resuspended in RPMI/BSA media at a concentration of 2.5×10^6 cells per ml. Fifty μl of this cell suspension was then added to the upper chamber. A 5 μm PVP-free polycarbonate filter, coated on the bottom with 10 microgram/ml of human type IV collagen (Neuro Probe Inc.), was used to separate the wells of the chamber Chambers were incubated for 60 minutes in a 5% CO2-humidified atmosphere at 37° C. After the incubation period, the filters were removed, the top side was scraped to remove non-migrating cells, and the filters were stained with Diff-Quik stain (Dade Behring AG, Dudingen, Switzerland). The number of PMBC cells migrating was counted by light microscopy. The mean of three high powered fields was then determined. The number of migrating PMBC cells was calculated by subtracting […].

Hut-78 cells = experiment: In vitro chemotaxis of Hut-78 cells; type: cell-based; conditions: FIG. 2

Molecule | effect on T cell chemotaxis compared with other chemokines [1] | other results
O=S1(=O)COc2cc(NCCCc3cnco3)ccc2N1 [Example 3] |  | IC50 (CCR7): 1.5 µM
Cc1cc(C)c2c(=O)n(CC(O)CN(C)CC3OCCCO3)sc2c1 (stereo not drawn) [Example 4] |  | IC50 (CCR7): 2.2 µM
IP-10: chemokine tested for comparison in T cell chemotaxis | minimal effects | 
MCP-1: chemokine tested for comparison in T cell chemotaxis | minimal effects | 
MCP-3: chemokine tested for comparison in T cell chemotaxis | minimal effects | 
B1 | minimal effects | 
B2 | most potent T cell chemotactic agents | chemoattractant activity for Hut-78 cells (Hut-78 cells): potent chemoattractants; chemoattractant activity for PHA-activated human T cells [1]: potent chemoattractants
B3 | most potent T cell chemotactic agents | chemoattractant activity for Hut-78 cells (Hut-78 cells): potent chemoattractants; chemoattractant activity for PHA-activated human T cells [1]: potent chemoattractants
B4 | minimal effects | 
B5 | minimal effects | 
B6 | minimal effects | 
